What all share (details): one partner purified
The target in assay [1] is T1, Human CC chemokine receptor type 5 (CCR5), C-terminally 6 × His-tagged (human, UniProt P51681 1-352).
T1 construct: CC chemokine receptor type 5 (CCR5), human; 352 amino acids, 40.5 kDa as printed; cloned in pIVEX2.3d; The same construct was made with no chaperonin, with GroEL-GroES (0.04:0.08 uM) or with GroEL alone (0.04 uM) added to the cell-free reaction; these three samples are kept apart as assays; For one gel, BODIPY-labelled lysines were incorporated during translation; also called CCR5 receptor; …
Nature of the assay: quartz crystal microbalance (QCM); CCR5 made without added chaperonin; supernatant diluted 20 times and immobilised on a Q-Sense His-tag Capturing Sensor; CCL11 flowed over; 25 °C; 25 mM HEPES, 0.12 M NaCl, 0.2% Brij35, pH 7.6; 1:1 binding model.

For assay [2], the target named is T1, Human CC chemokine receptor type 5 …. Nature of the assay: quartz crystal microbalance (QCM); CCR5 made with GroEL alone added to the cell-free reaction; supernatant diluted 20 times and immobilised on a Q-Sense His-tag Capturing Sensor; CCL11 flowed over; 25 °C; 25 mM HEPES, 0.12 M NaCl, 0.2% Brij35, pH 7.6; 1:1 binding model.
Assay [3] shares this target. The assay can be described thus: quartz crystal microbalance (QCM); CCR5 made with GroEL-GroES added to the cell-free reaction; supernatant diluted 20 times and immobilised on a Q-Sense His-tag Capturing Sensor; CCL11 flowed over; 25 °C; 25 mM HEPES, 0.12 M NaCl, 0.2% Brij35, pH 7.6; 1:1 binding model.

T1 sequence (P51681 whole entry): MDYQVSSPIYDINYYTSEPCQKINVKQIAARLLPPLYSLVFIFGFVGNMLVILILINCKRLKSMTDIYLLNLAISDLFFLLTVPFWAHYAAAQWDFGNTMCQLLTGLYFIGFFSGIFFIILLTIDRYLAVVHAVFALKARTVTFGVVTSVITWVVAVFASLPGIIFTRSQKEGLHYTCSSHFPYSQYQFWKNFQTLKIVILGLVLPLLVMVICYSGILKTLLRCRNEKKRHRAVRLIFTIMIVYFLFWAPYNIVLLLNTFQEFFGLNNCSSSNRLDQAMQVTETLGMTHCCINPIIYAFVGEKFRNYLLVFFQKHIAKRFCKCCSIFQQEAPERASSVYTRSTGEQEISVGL

B1: eotaxin (CCL11) (ligand)
chain: not shown
notes: eotaxin (CCL11)
On to B1, for which the dissociation constant Kd in assay [1] is 97 nM; in assay [2], 55 nM; in assay [3], 44 nM. Moreover, the koff in assay [1] amounted to 0.00046 s⁻¹; in assay [2], 0.00025 s⁻¹; in assay [3], 0.0002 s⁻¹. Further, the kon turned out to be 4700 M⁻¹ s⁻¹ in assay [1], 4600 M⁻¹ s⁻¹ in assay [2] and 4500 M⁻¹ s⁻¹ in assay [3].

One may read the Kd as the concentration at which binding is half-saturated. A lower Kd goes with higher affinity. By koff is commonly meant a measure of how fast the partners let go of each other. Read a low koff as a long-lived complex. As usually defined, the kon is the second-order rate constant of association. A higher kon goes with faster complex formation.
